From doi:10.1101/2021.06.03.446896

Molecular target: Cy5-labelled 46w60 mononucleosome (histone octamer on DNA)
Assay: MST

- Kd: 0.041 µM
- fold change of Kd with 2 uM (CA)20 RNA against no RNA: < 2 fold
- fold reduction of affinity with 2 uM (GA)20 RNA against no RNA: 20 fold
Substance: human CHD4 (from UniProt Q14839 1-1912) (enzyme)
